No end group written: not given here.
Target: T1, Flag-labeled truncated PINK1 (amino acids 321-509) (UniProt Q9BXM7 321-509)
T1 construct: PINK1, amino acids 321-509; also called C-lobe of kinase domain of PINK1; kinase domain C; source: HEK293T, purified using 3x Flag peptide
Experiment: pull-down; purified Flag-PINK1 (full length or truncated) incubated with biotin-labeled PD-L1 ICD peptide in 25 mM Tris-HCl pH 7.4, 150 mM NaCl, 1 mM EDTA, 0.05% NP-40, 10% glycerol for 12 h at 4 °C; streptavidin sepharose beads or anti-Flag M2 affinity gel 1.5 h; five washes; immunoblot
Conditions: both partners purified

T1 sequence (Q9BXM7 321-509): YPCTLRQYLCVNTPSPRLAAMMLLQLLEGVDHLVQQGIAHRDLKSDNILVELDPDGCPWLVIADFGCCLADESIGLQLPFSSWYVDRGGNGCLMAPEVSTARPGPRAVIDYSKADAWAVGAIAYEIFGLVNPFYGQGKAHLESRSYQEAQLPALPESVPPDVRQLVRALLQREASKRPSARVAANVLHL

B1: Biotin-labeled PD-L1 ICD peptide (amino acids 262-290) (peptide, UniProt Q9NZQ7 262-290, looked up)
peptide: RKGRMMDVKKCGIQDTNSKKQSDTHLEET
modifications: also: biotin-labeled, position not given here
notes: PD-L1 (CD274), intracellular domain, amino acids 262-290; also called intracellular domain of PD-L1; intracellular region of PD-L1; source: synthetic peptide (GenScript)
binding result: binds

Reference: article PMC9977947, “Targeting ATAD3A-PINK1-mitophagy axis overcomes chemoimmunotherapy resistance by redirecting PD-L1 to mitochondria” (Cell Research, 2023)
